Data taken from the Human Domainome abundance scans (Beltran et al. 2025).

B1: POU domain, class 2, transcription factor 3, residues 186 to 260; numbered along this chain, Q9UKI9 (parent)
chain: SDLEELEKFAKTFKQRRIKLGFTQGDVGLAMGKLYGNDFSQTTISRFEALNLSFKNMCKLKPLLEKWLNDAESSP
B2: Cold shock protein CspB, residues 1 to 66; numbered along this chain, P41016 (parent)
chain: MQRGKVKWFNNEKGYGFIEVEGGSDVFVHFTAIQGEGFKTLEEGQEVSFEIVQGNRGPQAANVVKL

Variants of: B1
Assay: abundance fitness (aPCA) (normalised: wild type 0, dead -1); higher = more abundant; growth selection in yeast, the domain comes from the species named
Conditions: Homo sapiens

Abundance fitness: each site, then its substitutions
P75: A 0.044 | K -0.128 | Q -0.086 | G 0.011 | S -0.067 | R -0.044 | L 0.022 | E -0.017 | W -0.183 | F -0.185 | C -0.076 | M -0.059 | H -0.044
N69: S 0.006 | K -0.125 | Q 0.033 | Y -0.081 | W 0.014 | P -0.326 | V -0.028 | L -0.068 | M -0.008 | T 0.033
D70: L -0.09 | R -0.049 | H -0.131 | P -0.405 | N -0.066 | C -0.201 | K -0.046 | E 0.027 | F -0.059 | V -0.096 | T 0.082 | I -0.02 | G -0.006 | A -0.059 | S -0.063 | Q 0.003 | Y -0.021 | M -0.103
A71: N 0.093 | I -0.074 | T -0.005 | K 0.022 | L 0.017 | V 0.01 | G -0.156 | R -0.025 | S -0.059 | W -0.076 | E -0.01 | D -0.322 | P -0.067 | C -0.169 | H 0.047 | Q 0.036 | Y -0.271 | M -0.017
E72: K -0.133 | R -0.122 | W -0.179 | Y -0.186 | F -0.24 | D -0.037 | Q -0.026 | L -0.173 | N -0.002 | I -0.213 | A -0.033 | V -0.043 | C -0.071 | T -0.078 | G -0.089 | S -0.084 | P -0.269
S73: E -0.04 | N 0.003 | H -0.017 | T -0.049 | W -0.173 | A -0.012 | M -0.088 | P -0.077 | Q -0.059 | Y -0.121 | V -0.038 | G -0.023 | D -0.003 | F -0.077 | C -0.087 | K -0.06 | R -0.113 | L -0.078
S74: V 0.039 | T -0.034 | H 0.058 | G -0.084 | E -0.172 | M -0.131 | L -0.119 | D -0.065 | Y -0.107 | R -0.038 | C -0.009 | F -0.08 | W -0.059 | I -0.033 | Q -0.017 | K 0.036

Variants of: B2
Assay: as above
Conditions: Bacillus caldolyticus

Abundance fitness, by site and new letter:
K13: F -0.1 | D -0.09 | V -0.044 | A -0.078 | I -0.065
E43: Q 0.025 | W -0.045 | T 0.025 | A 0.023 | K 0.059
V28: E -1.1 | N -0.999 | G -0.638 | A -0.1 | D -0.912
V63: K -0.721 | P -0.643 | R -0.71 | Q -1.13
G16: F -0.937 | M -0.965 | C -0.861 | V -0.847 | Y -0.946
A60: E -0.812 | H -0.771 | W -1 | Q -0.717
S24: T 0.003 | F -0.025
Y15: E -0.188 | A -0.233 | F -0.047 | P -0.885
I51: A -0.038 | L -0.003
K39: P -0.149 | C -0.08 | V -0.092 | N -0.077
N62: Q 0.152 | I -0.299
M1: S -0.049 | Y 0.027
G44: V -0.344
N10: E -0.079
Q2: D -0.036 | S -0.034 | W 0.001 | G -0.043
G22: C 0.02 | L -0.012 | E -0.013
V64: H -0.057 | W -0.042 | F 0.011 | A -0.03
